From US20220153832A1 (PIONYR IMMUNOTHERAPEUTICS, published 2022) come the findings set out here.

For test [1], the target named is T1, human MARCO (R&D biosystems), recombinant, coated in the LDL competition assay (human, UniProt Q9UEW3 70-520, limits assumed).
T1 construct: Bought protein
T1 sequence (looked up): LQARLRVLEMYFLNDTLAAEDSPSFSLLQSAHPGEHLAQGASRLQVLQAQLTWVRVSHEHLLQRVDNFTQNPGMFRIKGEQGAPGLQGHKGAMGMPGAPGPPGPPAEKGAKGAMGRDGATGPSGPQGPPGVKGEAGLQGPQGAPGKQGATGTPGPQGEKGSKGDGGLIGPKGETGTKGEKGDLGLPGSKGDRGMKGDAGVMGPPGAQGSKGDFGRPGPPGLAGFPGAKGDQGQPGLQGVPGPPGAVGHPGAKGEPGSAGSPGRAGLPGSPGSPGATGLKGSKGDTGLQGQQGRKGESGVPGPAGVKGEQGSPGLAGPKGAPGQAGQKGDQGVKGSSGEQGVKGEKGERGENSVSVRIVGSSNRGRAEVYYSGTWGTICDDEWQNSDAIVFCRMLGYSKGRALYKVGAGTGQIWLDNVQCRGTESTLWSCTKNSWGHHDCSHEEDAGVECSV
Kind of test: LDL competition on coated human MARCO (MSD), competitor biotinylated hLDL. The procedure: A high-binding, 96-well MSD plate was coated with 4 μg/ml mouse MARCO or 4 μg/ml human MARCO (R&D biosystems). After the plate was blocked with PBST and 5% BSA for an hour, titrated anti-mouse or anti-human MARCO antibodies were added to the plate and incubated for 30 minutes. Biotinylated hLDL (860 pM or 2 μg/ml) were added to the antibody, and the antibody/LDL mixture was incubated for an hour to allow the mixture to reach binding equilibrium. The plates were washed and bound biotinylated LDL was detected with Sulfo-tagged streptavidin that generates an electrocheminlumenscent signal when read buffer is added and electricity is applied to the electrodes in the MSD plate. IC50's were calculated using a 4-parameter curve fit in GraphPad Prism software.

Test [2] concerns the target T2, N-terminally polyhistidine tagged human MARCO ECD (147-520), recombinant (human, UniProt Q9UEW3 147-520).
T2 construct: also called PI-RG-3000; recombinant human MARCO; not shown: N-terminal polyhistidine tag
T2 sequence: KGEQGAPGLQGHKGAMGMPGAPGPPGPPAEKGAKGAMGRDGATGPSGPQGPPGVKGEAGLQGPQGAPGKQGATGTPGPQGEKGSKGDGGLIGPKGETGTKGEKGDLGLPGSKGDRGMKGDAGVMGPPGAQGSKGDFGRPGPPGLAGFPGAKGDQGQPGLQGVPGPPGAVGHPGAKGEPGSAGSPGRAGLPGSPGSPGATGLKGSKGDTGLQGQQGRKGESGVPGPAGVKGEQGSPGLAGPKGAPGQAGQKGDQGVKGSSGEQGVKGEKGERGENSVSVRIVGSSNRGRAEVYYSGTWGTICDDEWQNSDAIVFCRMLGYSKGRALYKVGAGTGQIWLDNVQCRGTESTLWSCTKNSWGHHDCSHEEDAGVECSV
Briefly: ELISA on recombinant human MARCO, 10 mM EDTA. As to the method: After the plates were incubated at room temperature for 1 hour or 4° C. overnight, the plates were wash 3 times with ELISA wash buffer (PBS/0.05% TWEEN-20), then hybridoma supernatant (1:5 dilution) or purified antibody (1 ug) was diluted in DPBS/Ca2+/2% FBS, DPBS without Ca2+/2 mM EDTA/2% FBS, DPBS without Ca2+/10 mM EDTA/2% FBS, and DPBS without Ca2+/50 mM EDTA/2% FBS. Plates again were incubated at room temperature for 1 hour.
For orientation: ELISA stands for enzyme-linked immunosorbent assay.

Test [3] addresses T3, recombinant cynomolgus MARCO protein (cynomolgus, UniProt A0A2K5X0Z2 65-519).
T3 construct: Construct not described; also called cyno MARCO; cynoMARCO
T3 sequence: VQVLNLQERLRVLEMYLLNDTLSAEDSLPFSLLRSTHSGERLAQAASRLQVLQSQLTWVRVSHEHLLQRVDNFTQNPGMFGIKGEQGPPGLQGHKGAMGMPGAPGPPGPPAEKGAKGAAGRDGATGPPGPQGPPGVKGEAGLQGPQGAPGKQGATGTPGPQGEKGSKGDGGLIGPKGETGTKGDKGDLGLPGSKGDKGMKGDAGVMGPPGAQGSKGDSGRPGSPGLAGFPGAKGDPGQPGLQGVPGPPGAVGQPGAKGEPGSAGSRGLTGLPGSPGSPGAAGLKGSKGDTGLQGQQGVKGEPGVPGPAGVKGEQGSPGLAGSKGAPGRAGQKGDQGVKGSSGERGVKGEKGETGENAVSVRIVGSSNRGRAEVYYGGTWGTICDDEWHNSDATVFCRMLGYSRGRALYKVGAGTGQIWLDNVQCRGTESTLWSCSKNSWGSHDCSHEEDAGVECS
Kind of test: SPR, single cycle (sc).

Test [4] addresses T2, N-terminally polyhistidine tagged human …. Kind of test: SPR, single cycle (sc).
Test [5] deals with T4, Cynomolgus MARCO, full length, on cells (cynomolgus, UniProt A0A2K5X0Z2 1-519).
T4 construct: whole, on cells; also called cyno MARCO; CyMARCO
T4 sequence: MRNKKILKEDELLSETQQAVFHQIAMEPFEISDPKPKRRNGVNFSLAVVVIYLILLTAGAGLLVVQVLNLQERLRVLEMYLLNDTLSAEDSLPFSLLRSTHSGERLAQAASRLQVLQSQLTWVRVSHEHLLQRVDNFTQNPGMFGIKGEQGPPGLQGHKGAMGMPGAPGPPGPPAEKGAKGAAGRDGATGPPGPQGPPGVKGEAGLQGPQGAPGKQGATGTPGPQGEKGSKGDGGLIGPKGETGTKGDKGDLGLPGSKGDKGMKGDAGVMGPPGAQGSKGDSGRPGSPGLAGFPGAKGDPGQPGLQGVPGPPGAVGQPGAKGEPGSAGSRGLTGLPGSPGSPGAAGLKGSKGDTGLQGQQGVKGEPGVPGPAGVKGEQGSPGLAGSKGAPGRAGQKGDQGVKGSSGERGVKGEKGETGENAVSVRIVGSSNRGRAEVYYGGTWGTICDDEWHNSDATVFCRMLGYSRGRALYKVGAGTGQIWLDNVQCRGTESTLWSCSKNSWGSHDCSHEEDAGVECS
Kind of test: flow cytometry, cells overexpressing cyno MARCO. A general note: Flow cytometry measures light scatter and fluorescence of single cells or particles in a stream.

B1: PI-HX-3061 (antibody, rat IgG2a)
heavy: EVQLVESGGGLVQPGSSLKLSCVASKFTFSNYGMNWIRQAPKKGLEWIALIYYNSNNKYYADSVKGRFTISRDNSKNTLYLEMNSLRSEDTAMYYCAKSLTGGSDYFDSWGQGVMVTVSSAETTAPSVYPLAPGTALKSNSMVTLGCLVKGYFPEPVTVTWNSGALSSGVHTFPAVLQSGLYTLTSSVTVPSSTWPSQTVTCNVAHPASSTKVDKKIVPRNCGGDCKPCICTGSEVSSVFIFPPKPKDVLTITLTPKVTCVVVDISQDDPEVHFSWFVDDVEVHTAQTRPPEEQFNSTFRSVSELPILHQDWLNGRTFRCKVTSAAFPSPIEKTISKPEGRTQVPHVYTMSPTKEEMTQNEVSITCMVKGFYPPDIYVEWQMNGQPQENYKNTPPTMDTDGSYFLYSKLNVKKEKWQQGNTFTCSVLHEGLHNHHTEKSLSHSP
light: DVQMTQSPSYLAASPGESVSISCKASKSIGTFLAWYQEKPEKTNKLLIYSGSTLQSGTPSRFSGSGSGTDFTLTIRNLEPEDFAVYYCQQHDEYPFTFGSGTKLEIKRADAAPTVSIFPPSTEQLATGGASVVCLMNNFYPRDISVKWKIDGTERRDGVLDSVTDQDSKDSTYSMSSTLSLTKADYESHNLYTCEVVHKTSSSPVVKSFNRNEC
notes: Parental rat hybridoma, rat IgG2a; cross reactive with human and mouse MARCO
By EC50 is commonly meant the concentration that produces a half-maximal response. B1: in test [1], the EC50 turned out to be 8.2 nM.

B2: PI-HX-3031 (antibody)
heavy: QVQLKESGPGLVQPSQTLSLTCTVSGFSLTSYHVSWVRQPPGKGLEWMGAIWTGGSIAYNSLLKSRLSISRDTSKSQVFLKMNSLQTEDTATYYCARDLSDYYSSYTSFDYWGQGVMVTVSTAETTAPSVYPLAPGTALKSNSMVTLGCLVKGYFPEPVTVTWNSGALSSGVHTFPAVLQSGLYTLTSSVTVPSSTWSSQAVTCNVAHPASSTKVDKKIVPRECNPCGCTGSEVSSVFIFPPKTKDVLTITLTPKVTCVVVDISQNDPEVRFSWFIDDVEVHTAQTHAPEKQSNSTLRSVSELPIVHRDWLNGKTFKCKVNSGAFPAPIEKSISKPEGTPRGPQVYTMAPPKEEMTQSQVSITCMVKGFYPPDIYTEWKMNGQPQENYKNTPPTMDTDGSYFLYSKLNVKKETWQQGNTFTCSVLHEGLHNHHTEKSLSHSP
light: DIQMTQSPASLSTSLGETVSIECLASEGISNDLAWYQQKSGKSPQLLIYAASRLQDGVPSRFSGSGSGTRYSLKISGMQPEDEADYFCQQSYKYPLTFGSGTKLEIKRADAAPTVSIFPPSTEQLATGGASVVCLMNNFYPRDISVKWKIDGTERRDGVLDSVTDQDSKDSTYSMSSTLSLTKADYESHNLYTCEVVHKTSSSPVVKSFNRNEC
notes: Parental rat hybridoma, rat IgG2a
As for B2, the “ELISA signal (A450)” value in test [2] turned out to be 0.0589.

B3: PI-HX-3043 (antibody, rat IgG2a)
heavy: QVNLLQSRAALVKPGASVKLSCKASGYTFTDYYLHWVKQSHAKSLEWIGYINPNNAYTSYNEKFKSKATLTVDKSTNTAYMELSRLTSADSATYYCARDTTDYYNLHFAYWGQGTLVTVSSAETTAPSVYPLAPGTALKSNSMVTLGCLVKGYFPEPVTVTWNSGALSSGVHTFPAVLQSGLYTLTSSVTVPSSTWSSQAVTCNVAHPASSTKVDKKIVPRECNPCGCTGSEVSSVFIFPPKTKDVLTITLTPKVTCVVVDISQNDPEVRFSWFIDDVEVHTAQTHAPEKQSNSTLRSVSELPIVHRDWLNGKTFKCKVNSGAFPAPIEKSISKPEGTPRGPQVYTMAPPKEEMTQSQVSITCMVKGFYPPDIYTEWKMNGQPQENYKNTPPTMDTDGSYFLYSKLNVKKETWQQGNTFTCSVLHEGLHNHHTEKSLSHSP
light: DIQMTQSPASLSASLGETVSIECLTSEGISNDLAWYQQKSGKSPQLLIYDASRLEDGVPSRFSGSGSGTRYSLKISGMQTEDEADYFCQQSYKYPLTFGSGTKLEIKRADAAPTVSIFPPSTEQLATGGASVVCLMNNFYPRDISVKWKIDGTERRDGVLDSVTDQDSKDSTYSMSSTLSLTKADYESHNLYTCEVVHKTSSSPVVKSFNRNEC
notes: as for B2
With B3, in test [1], the EC50 stood at 3.4 nM. Besides, in test [2], the “ELISA signal (A450)” value came out at 0.06.

B4: PI-3015-AB (antibody, human IgG1, kappa)
heavy: not shown
light: DIQMTQSPSSLSASVGDRVTITCRASEGISNDLAWYQQKPGKAPKLLIYAASRLQSGVPSRFSGSGSGTDYTLTISSMQPEDFATYYCQQSYKYPLTFGQGTKLEIKRTVAAPSVFIFPPSDEQLKSGTASVVCLLNNFYPREAKVQWKVDNALQSGNSQESVTEQDSKDSTYSLSSTLTLSKADYEKHKVYACEVTHQGLSSPVTKSFNRGEC
As a reminder, the Kd is the equilibrium constant for the complex coming apart. As to B4, the Kd in test [3] turned out to be 0.611 nM; in test [4], 0.911 nM. In addition, the midpoint of the response in test [5], the EC50, lay at 1.73 nM.

B5: PI-3010-AB (antibody, human IgG1, kappa)
heavy: not shown
light: DIQMTQSPASLSTSLGETVSIECLASEGISNDLAWYQQKSGKSPQLLIYAASRLQDGVPSRFSGSGSGTRYSLKISGMQPEDEADYFCQQSYKYPLTFGSGTKLEIKRTVAAPSVFIFPPSDEQLKSGTASVVCLLNNFYPREAKVQWKVDNALQSGNSQESVTEQDSKDSTYSLSSTLTLSKADYEKHKVYACEVTHQGLSSPVTKSFNRGEC
Consider B5, for which the results for the Kd in test [3] and in test [4] were 0.259 nM and 0.43 nM, respectively. The molecule further came in with an EC50 in test [5] of 1.48 nM.
